In patent US20220112288A1 (published 2022):
Positions count from the first letter of the chain named.

B1: 75110_02I18A (antibody, V domains shown)
VH: EVQVVESGGGLVQPGGSLRLSCAASGFTFSSYDMHWVRQATGKGLEWVSTIGTAGDTYYPGSVKGRFTISRENAKNSLYLQMNSLRAGDTAVYYCARGGYYYYGMDVWGQGTTVTVSS
VL: EIVLTQSPGTLSLSPGERATLSCRASQSVSSSYLAWYQQKPGQSPRLLIHGASSRATGIPDRVSGSGSGTDFTLTISRLEPEDFAVYYCQQYGSSPFTFGPGTKVDIK
notes: Tested as non-clonal hybridoma supernatant (AlivaMab Mouse Kappa), detected with anti-mouse Fc and anti-human kappa
B2: 75110_05F19A (antibody, V domains shown)
VH: B1 VH with V4L, S31N, M34V, A40P, Y101D, M105L
VL: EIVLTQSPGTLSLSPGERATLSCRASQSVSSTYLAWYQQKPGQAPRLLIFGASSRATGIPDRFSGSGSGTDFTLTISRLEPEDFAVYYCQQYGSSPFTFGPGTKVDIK
notes: as for B1
B3: 75110_01L08A (antibody, V domains shown)
VH: QVQLQESGPGLVKPSETLSLTCTVSGGSISHYYWSWIRQPPGKGLEWIGYIHYSGTTNYNPSLKSRVTISVDTSKNQLSLKLRSVTAADTAVYYCARDQGFSSGGMDVWGQGTTVTVSS
VL: not shown
notes: as for B1
B4: 75110_04G02A (antibody, V domains shown)
VH: not shown
VL: DIVMTQSPDSLAVSLGERATINCKSSQSVLYSSNNKNYLAWYQQKPGQPPKLLFYWASARESGVPDRFSGSGSGTDFTLTISSLQAEDVALYYCQQYFGSFPTFGQGTKLEIK
notes: as for B1
B5: 75110_14G10A (antibody, V domains shown)
VH: EVQLVESGGGLVKPGGSLRLSCAASGFTFSSYSMNWVRQAPGKGLEWVSFISSSSSYIYYADSVKGRFTISRDNAKNSLYLQMNSLRAEDTAVYYCARERGDDYGDYEGAFDIWGQGTMVTVSS
VL: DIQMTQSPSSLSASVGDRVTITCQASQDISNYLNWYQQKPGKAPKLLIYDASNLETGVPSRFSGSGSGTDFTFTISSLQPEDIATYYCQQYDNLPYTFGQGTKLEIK
notes: Tested as non-clonal AlivaMab Mouse Kappa hybridoma supernatant (detected with anti-mouse Fc gamma and anti-human kappa)
B6: 75110_02N15A (antibody, V domains shown)
VH: EVQLVESGGGLVQPGGSLRLSCAASGFTFSSYWMSWVRQAPGKGLEWVANINEDGNEKYYVDSVKGRFTISRDNAKNSLFLQMNSLRAEDTAVYFCAREGGQWLALDHWGQGALVTVSS
VL: DIQMTQSPSSVSASVGDRVTITCRASQGISSWLAWYQQKPGKAPKFLISGASSLQSGVPSRFSGSGSGTDFTLTISSLQPEDFATYYCQQANSFPWTFGQGTKVEFK
notes: as for B5
B7: 75110_14N19A (antibody, V domains shown)
VH: QVQLQESGPGLVKPSETLSLTCTVSGGSISRYYWSWIRQPAGKGLEWIGRICTSENPNYNPALKSRVTMSVDTSKNQFSLKLSSVTAADTAVYYCARELERLNYYGMDVWGQGTTVTVSS
VL: DIQMTQFPSSLSASVGDRVTITCQASQDISNYLNWYQQKPGKAPKLLIYDASNLESGVPSRFSGRGSGTDFTFTISSLQPEDFATFYCQQYDTLPITFGQGTRLEIK
notes: as for B5
B8: 75110_14P08A (antibody, V domains shown)
VH: QVQLQESGPGLVKSSETLSLTCTDSGDSIRSYYWNWIRQPAGKGLEWIGRIYASGSTNYNPSLKSRVIMSADTSKNRFSLKLSSVTAADTAVYYCARDGGVGDSLDYWGQGTLVTVSS
VL: DIVMTQTPLSLPVTPGEPASISCRSSQSLLDSDDGNTYLDWYLQKPGQSPQLLIYTLSYRASGVPDRFSGSGSGTDFTLKISRVEAEDVGVYYCMQRIEFPFTFGPGTKVDIK
notes: as for B5

Each binder was assayed against T1, human CD4 on cells (SKW3 cells; human PBMCs) (human, UniProt P01730 26-458) (assay: FACS confirmation, supernatant on SKW3 WT cells, anti-mFc 647 (Bkrd gMFI = 3300)).
T1 construct: whole, on cells; SKW3 CD4 knockout cells served as the negative cell line for the WT vs KO ratios; also called hCD4; SKW3 WT

Binder | gMFI [gMFI]
B1 | 16500
B2 | 42200
B3 | 18700
B4 | 12000

The binders below were run against T2, human CD4 on cells (SKW3 cells; human PBMCs) (human, UniProt P01730 26-458) (assay: FACS binning on SKW3 cells; competitor RPA-T4-PE-Dazzle 594; background 783, max binding 15000).
T2 construct: whole, on cells; SKW3 CD4 knockout cells served as the negative cell line in the primary screen; also called hCD4; huCD4

Binder | RPA-T4-PE-Dazzle 594 signal with supernatant
B5 | 10100
B6 | 14200
B7 | 16600
B8 | 16400

What follows are binders tested against T1, human CD4 on cells (SKW3 cells; human …) (assay: FACS primary screen, non-clonal hybridoma supernatant; SKW3 WT vs SKW3 CD4 KO cells, anti-hKappa-FITC).

Binder | SKW3 WT vs KO anti-hKappa-FITC [fold]
B1 | 2.2
B2 | 2.8
B3 | 2.6
B4 | 1.5

The binders below were run against T1, human CD4 on cells (SKW3 cells; human …) (assay: SKW3 FACS binning; competitor OKT4-A488 added after supernatant (background 2163, max binding 8200)).

Binder | OKT4 A488 signal in binning
B1 | 9230
B2 | 8920
B3 | 9750
B4 | 9330

What follows are binders tested against T2, human CD4 on cells (SKW3 cells; human …) (assay: FACS binning on SKW3 cells; competitor OKT4a; background 5000, max binding 35000).

Binder | OKT4a signal (anti-hu A647) with supernatant
B5 | 41800
B6 | 42900
B7 | 29700
B8 | 38400

The binders below were run against T1, human CD4 on cells (SKW3 cells; human …) (assay: SKW3 FACS binning; competitor OKT4a added after supernatant, anti-hu A647 secondary (background 5000, max binding 35000)).

Binder | OKT4a anti-hu A647 signal in binning
B1 | 44800
B2 | 30000
B3 | 9030
B4 | 22500

Each binder was assayed against T1, human CD4 on cells (SKW3 cells; human …) (assay: FACS confirmation, supernatant on SKW3 WT cells, anti-hu Kappa FITC (Bkrd gMFI = 2500)).

Binder | gMFI [gMFI]
B1 | 5370
B2 | 8510
B3 | 5520
B4 | 4060

Each binder was assayed against T1, human CD4 on cells (SKW3 cells; human …) (assay: FACS confirmation, supernatant on human PBMCs, anti-mFc 647, CD4+ gate).

Binder | CD4+ gate RL1 Binding
B1 | 275000
B2 | 281000
B3 | 200000
B4 | 178000

These binders were tested against T2, human CD4 on cells (SKW3 cells; human …) (assay: FACS confirmation, supernatant on SKW3 cells; background gMFI 2500).

Binder | gMFI on SKW3 WT, anti-hu Kappa FITC [gMFI]
B5 | 3410
B6 | 5000
B7 | 7640
B8 | 5580

The binders below were run against T3, huCD4-HIS (human, UniProt P01730 26-390, limits assumed) (assay: ELISA binning; competitor Ibalizumab, 100 ng/mL huCD4-HIS, anti-HIS HRP detection (background 45, max binding 3000000)).
T3 construct: Named only in the head of the ELISA binning column; not shown: HIS tag

Binder | Ibalizumab ELISA binning signal
B1 | 291000
B2 | 45
B3 | 58200
B4 | 45

The binders below were run against T2, human CD4 on cells (SKW3 cells; human …) (assay: FACS binning on SKW3 cells; competitor OKT4-A488; background 2163, max binding 8200).

Binder | OKT4-A488 signal with supernatant
B5 | 8720
B6 | 3020
B7 | 9080
B8 | 9100

The binders below were run against T1, human CD4 on cells (SKW3 cells; human …) (assay: SKW3 FACS binning; competitor RPA-T4-PE-Dazzle 594 added after supernatant (background 783, max binding 15000)).

Binder | RPA-T4-PE-Dazzle 594 signal in binning
B1 | 4410
B2 | 15900
B3 | 19800
B4 | 12100

What follows are binders tested against T1, human CD4 on cells (SKW3 cells; human …) (assay: FACS confirmation, supernatant on human PBMCs, anti-mFc 647, percent of viable cells).

Binder | CD4+ Percent Bound of Viable [%]
B1 | 29
B2 | 31
B3 | 27
B4 | 27

The binders below were run against T2, human CD4 on cells (SKW3 cells; human …) (assay: FACS confirmation, supernatant on SKW3 cells; background gMFI 3300).

Binder | gMFI on SKW3 WT, anti-mFc 647 [gMFI]
B5 | 8910
B6 | 15900
B7 | 28600
B8 | 20300

Each binder was assayed against T1, human CD4 on cells (SKW3 cells; human …) (assay: FACS primary screen, non-clonal hybridoma supernatant; SKW3 WT vs SKW3 CD4 KO cells, anti-mFc-647).

Binder | SKW3 WT vs KO anti-mFc-647 [fold]
B1 | 4.2
B2 | 10.6
B3 | 4.3
B4 | 6.6

Each binder was assayed against T2, human CD4 on cells (SKW3 cells; human …) (assay: FACS confirmation, supernatant on human PBMCs;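 further: flow cytometry with hybridoma supernatants incubated on human PBMCs for 30 min at 4 °C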).

Binder | PBMCs CD4+ gate RL1 binding, anti-mFc 647 | PBMCs CD4+ percent bound of viable [%]
B5 | 142000 | 32
B6 | 250000 | 27
B7 | 277000 | 29
B8 | 292000 | 30

The binders below were run against T2, human CD4 on cells (SKW3 cells; human …) (assay: FACS primary screen, hybridoma supernatant, SKW3 vs SKW3 CD4 KO cells;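 further: flow cytometry on mixed SKW3 and dye-labeled SKW3 CD4 knockout cells after 30 min at 4 °C with supernatant, ratio of binding signal on parental versus knockout cells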).

Binder | SKW3 WT vs KO ratio, anti-hKappa-FITC | SKW3 WT vs KO ratio, anti-mFc-647
B5 | 1.1 | 2.2
B6 | 2.1 | 4.9
B7 | 3.8 | 14.9
B8 | 2.2 | 6.7

What follows are binders tested against T4, huCD4-HIS (human, UniProt P01730 26-390, limits assumed) (assay: ELISA binning; competitor ibalizumab; 100 ng/mL huCD4-HIS, anti-HIS HRP; background 45, max binding 3000000).
T4 construct: the ELISA is not described in the text of this stretch; also called human CD4-HIS

Binder | Ibalizumab ELISA binning signal
B5 | 1.21e+06
B6 | 1.98e+06
B7 | 1.28e+06
B8 | 2.2e+06
